This is an account of results in patent EP2330125A2.

One assay addresses calcitonin receptor. The assay is described as follows: calcitonin receptor binding assay.
Consider “[#NH-Cys-(bAla)-PYY-(3-36), amide] [#Suc-(bAla)-PYY-(3-36), amide] (peptide; modification not given)”, for which the Receptor Binding was 643.

In the next assay the target is CGRP receptor (Homo sapiens (Human)) (UniProt Q16602). Description: 125I-hCGRP displacement, SK-N-MC membranes.
As for Rat amylin (peptide), the Receptor Binding worked out at 21.
On the same count and under the same terms, then “27(p-CH2SO3)-PheCCK8(26-33),G,K,R,15Glu,hAmy(1-17),18Arg,sCT(18-26),hAmy(32-37) (peptide)”, with 4.4.

In the next assay the target is neuropeptide Y2 receptor (UniProt P49146). The assay is described as follows: [125I]-human PYY displacement, SK-N-BE membranes.
neuropeptide Y2 receptor, sequence (P49146 whole entry): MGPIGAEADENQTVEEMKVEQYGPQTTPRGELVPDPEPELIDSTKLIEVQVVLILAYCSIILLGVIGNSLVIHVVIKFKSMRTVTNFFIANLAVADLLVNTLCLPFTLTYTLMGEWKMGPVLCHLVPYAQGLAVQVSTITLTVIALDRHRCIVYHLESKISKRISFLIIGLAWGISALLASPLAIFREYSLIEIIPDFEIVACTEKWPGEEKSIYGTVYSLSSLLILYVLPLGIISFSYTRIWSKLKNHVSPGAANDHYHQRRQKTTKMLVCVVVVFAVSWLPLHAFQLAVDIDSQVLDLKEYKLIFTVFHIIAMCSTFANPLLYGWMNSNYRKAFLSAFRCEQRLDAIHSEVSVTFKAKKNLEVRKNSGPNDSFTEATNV
Regarding Human NPY (peptide), the Receptor Binding stood at 0.2.
The same measure, in the same setting: the value for “[Asp(#)-miniPEG-Gly-PYY (3-36), amide] [#Cys-Gly-Gly-PYY (3-36), amide] (peptide)” was 0.8.
Turning to “[#Cys-Gly-Gly-PYY (3-36), amide] [Asp(#)-miniPEG3-Gly-PYY (3-36), amide] (peptide)”, the Receptor Binding was determined as 0.8.
Consider “[#Cys-Gly-Gly-PYY (3-36), amide] [Asp(#)-Pro-Pro-Pro-Pro-Pro-Pro-PYY (3-36), amide] (peptide)”, for which the Receptor Binding was 0.8.
On the same count and under the same terms, the value for “[#Suc-(bAla)-PYY-(3-36), amide] [#NH-Des-Lys1-Rat Amylin, amide] (peptide)” was 0.39; that for “[Ac-alpha-MSH-bAla-bAla-PYY-(3-36); amide] (peptide)” was 0.2.
The substance “[#Des-Lys1 Compound 10, amide] (Asp(#)-Pro-Pro-Pro-Pro-Pro-Pro-PYY (3-36), amide (peptide)” yielded a Receptor Binding of 0.5.
Same read-out and setting: the value for “[#NH-Cys-(bAla)-PYY-(3-36), amide] [#Suc-(bAla)-PYY-(3-36), amide] (peptide)” was 1.2.

In a further assay the target is calcitonin receptor. The assay is described as follows: cell-based or functional assay.
calcitonin receptor, sequence (P30988 whole entry): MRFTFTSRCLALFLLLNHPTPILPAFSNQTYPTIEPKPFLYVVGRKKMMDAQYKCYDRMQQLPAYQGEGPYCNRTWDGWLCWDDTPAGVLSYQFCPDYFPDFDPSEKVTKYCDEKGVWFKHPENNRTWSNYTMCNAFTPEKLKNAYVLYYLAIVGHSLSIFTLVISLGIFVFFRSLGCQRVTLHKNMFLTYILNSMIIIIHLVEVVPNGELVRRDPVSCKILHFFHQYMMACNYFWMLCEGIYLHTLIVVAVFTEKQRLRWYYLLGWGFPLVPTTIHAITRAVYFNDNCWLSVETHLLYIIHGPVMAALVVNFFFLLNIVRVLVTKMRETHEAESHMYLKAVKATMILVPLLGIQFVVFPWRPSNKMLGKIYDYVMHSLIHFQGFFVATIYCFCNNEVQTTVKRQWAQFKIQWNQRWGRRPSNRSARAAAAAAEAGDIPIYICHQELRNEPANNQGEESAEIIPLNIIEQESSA
“[#NH-Cys-(bAla)-PYY-(3-36), amide] [#Suc-(bAla)-PYY-(3-36), amide] (peptide; modification not given)”: the CT cyclase was 2270.
